Legend:
[1] = target: WspR-His (Lysobacter enzymogenes OH11)
[2] = target: WspR-His (Lysobacter enzymogenes OH11); assay: MST; 100 nM WspR-His labelled with RED-Tris-NTA, titrated with MBP-RpfG or its variant; 50 mM Tris pH 7.5, 150 mM NaCl, 10 mM MgCl2, 0.05% Tween 20; 25 °C; Monolith NT.115
[3] = target: WspR-His~P (Lysobacter enzymogenes OH11); assay: as above
[4] = target: WspR-His (Lysobacter enzymogenes OH11); assay: MST; as the WspR-RpfG MST assay, with 10 μM DSF added
[5] = target: WspR-His (Lysobacter enzymogenes OH11); assay: MST; as the WspR-RpfG MST assay, with 10 μM c-di-GMP added

Chain of WspR-His (Lysobacter enzymogenes OH11) (main, as listed by the source): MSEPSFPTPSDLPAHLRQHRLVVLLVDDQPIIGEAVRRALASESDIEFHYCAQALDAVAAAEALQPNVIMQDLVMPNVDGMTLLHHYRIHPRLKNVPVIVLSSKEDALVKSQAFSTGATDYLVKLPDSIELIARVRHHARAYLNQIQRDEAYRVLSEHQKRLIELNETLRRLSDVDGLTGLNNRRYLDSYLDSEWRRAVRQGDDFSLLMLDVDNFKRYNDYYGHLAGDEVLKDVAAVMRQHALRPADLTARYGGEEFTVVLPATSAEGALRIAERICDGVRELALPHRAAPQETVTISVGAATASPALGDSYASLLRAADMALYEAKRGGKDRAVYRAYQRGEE
Chain of WspR-His~P (Lysobacter enzymogenes OH11) (main, as listed by the source): as above

Substance | reduction of c-di-GMP production by WspR-His from GTP (HPLC peak area) on addition of MBP-RpfG^H190A [1] | Kd [2] | Kd [3] | reduction of c-di-GMP production by WspR-His from GTP (HPLC peak area) on addition of MBP-RpfG [1] | Kd [4] | Kd [5]
MBP-RpfG^H190A (enzyme) | 34% | 200 nM | 560 nM |  |  | 
MBP-RpfG (enzyme) |  | 150 nM | 930 nM | 82% | 250 nM | 320 nM
phosphorylated RpfG (RpfG~P) (enzyme) |  | 240 nM |  |  |  | 

Reference: article PMC9758175
